Results on 4 molecules are retold here after patent publication US20180094062A1 (Hoffmann-La Roche, published 2018).

Test [1] concerns the target T1, human recombinant HER3 Extracellular Domain (HER3 ECD) (human, UniProt P21860 20-643).
T1 construct: 68 kDa; also called human-Her3-ECD
Briefly: SPR Biacore T200, antibody captured, 25 C. The protocol:
(§1) A Biacore T200 instrument (GE Healthcare) was mounted with a CM5 series sensor. The sensor was normalized in HBS-ET buffer (10 mM HEPES pH 7.4, 150 mM NaCl, 3 mM EDTA, 0.05% w/v Tween 20) according to the manufacturer's instructions. The sample buffer was the system buffer supplemented with 1 mg/ml CMD (Carboxymethyldextran, Sigma #86524). The system operated at 25° C. 6500 RU RAM-Fcγ (relative units of Fcγ-fragment RamlgG, GE Healthcare) were immobilized according to the manufacturer's instructions using amine coupling EDC/NHS chemistry on all four flow cells. The sensor was deactivated using 1M ethanolamine. […] Concentration dependent kinetics were measured. […] All analytes were injected for 5 min association time and 10 min dissociation time at 100 μl/min flow rate. The sensor capture system was regenerated by a 3 min injection at 10 μl/min of 10 mM glycine pH 1.7. Where possible kinetic data was evaluated using the Biacore T200 evaluation software.
(In general: In SPR one partner is held on a chip, and binding of the other changes the refractive index at the surface.)

The target of test [2] is T2, HER3 ECD-HRG complex (Heregulin-activated Her-3 ECD) (human, UniProt P21860 20-643).
T2 construct: receptor-ligand complex made by preincubating HER3 ECD with a five-fold molar excess of Heregulin; also called Heregulin/Her-3 ECD; Heregulin-complexed Her-3 ECD
Briefly: SPR Biacore T200, antibody captured, 25 C. As for the experimental part:
as §1

A further test deals with T3, TtSlyDcas.
T3 construct: negative control scaffold without the HER3 β-hairpin
T3 chain: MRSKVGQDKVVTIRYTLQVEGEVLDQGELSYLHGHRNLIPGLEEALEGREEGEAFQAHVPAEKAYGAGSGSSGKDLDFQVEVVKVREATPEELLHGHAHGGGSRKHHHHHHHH
As to the kind of experiment: SPR Biacore T200, antibody captured, 25 C. The protocol:
as §1

In test [3] the target is T2, HER3 ECD-HRG complex …. Briefly: SPR, Interaction Map (TraceDrawer), two-state-kinetic no. 1, 25 C. As for the experimental part: as §1
Test [4] has as its target T1, human recombinant HER3 Extracellular …. Briefly: SPR Biacore 4000 kinetic screening, antibody captured, analyte 150 nM, 25 C. As for the experimental part: (§2) In all assay the test antibodies were captured. The system was under the control of the software version V1.1. The instrument buffer was HBS-EP (10 mM HEPES (pH 7.4), 150 mM NaCl, 1 mM EDTA, 0.05% (w/v) P20). The system operated at 25° C. 30 μg/ml Rabbit polyclonal antibody (RAM IgG, (Rabbit anti Mouse IgG with Fc gamma specificity) GE Healthcare) in 10 mM sodium acetate buffer (pH 4.5) was immobilized using EDC/NHS chemistry according to the manufacturer's instructions on the spots 1, 2, 4 and 5 in the flow cells 1, 2, 3 and 4. The sensor was saturated using 1M ethanolamine. In each flow cell, referenced signals were calculated using spots 1-2 and spots 5-4, spot 3 served as a blanc control. […] Prior to their application the hybridoma culture supernatants were diluted 1:5 in instrument buffer. The diluted mixtures were injected at a flow rate of 30 μl/min for 2 min. The antibody capture level (CL) in response units was monitored. Immediately thereafter the respective antigen was injected at a flow rate of 30 μl/min for 3 min association time. Thereafter, the antibody-antigen complex dissociation signal was recorded for 5 min. The sensor was regenerated by injecting a 10 mM glycine-HCl solution (pH 1.7) for 2 min at a flow rate of 30 μl/min. The recorded signal shortly before the end of the injection of the antigen was denoted as binding late (BL) in response units. The recorded signal shortly before the end of the recording of the dissociation is denoted as stability late (SL) in response units. The dissociation rate constants were determined calculated The antibody-antigen complex stability in minutes was calculated with the following formula: […]. The Molar Ratio was calculated with the formula: MW (antibody)/MW (antigen) *BL (antigen)/CL (antibody).

Test [5] concerns the target T4, recombinant Thermus thermophilus SlyD FKBP-Her3 (TtSlyD-FKBP-Her3).
T4 construct: expressed in E. coli, the N-terminal methionine can be present or not; also called thermo SlyD-Her3; T.T.SlyD-Her3
T4 chain: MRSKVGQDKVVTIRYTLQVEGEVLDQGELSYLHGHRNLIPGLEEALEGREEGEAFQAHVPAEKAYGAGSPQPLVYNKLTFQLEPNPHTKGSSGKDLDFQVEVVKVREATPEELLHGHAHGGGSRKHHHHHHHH
The description is as above. The protocol:
as §2

The target in test [6] is HER2, full length, on cells (transfected HEK293, MCF7) (human, UniProt P04626 23-1255). As to the kind of experiment: IHC on HEK293 cells transiently transfected with full length HER2; NC = untransfected cells. As for the experimental part:
All selected clones were tested for reactivity and specificity in IHC. […] After an additional fixation in formalin overnight the Agarose blocks were embedded in paraffin. Untransfected HEK293 cells were used as negative controls and treated accordingly to the transfected cells. After paraffin embedding 3 μm thin sections were prepared using a microtome. The sections were mounted on glass microscopy slides and dried for 2 h. All further steps of the immunohistochemical staining procedure were carried out using a Ventana Benchmark XT. The slides were dewaxed and antigen retrieval was performed by applying heat for 1 hour. For antigen retrieval the Ventana buffer CC1 was used. The antibodies were used at a concentration of 1 μg/ml. For the detection of bound antibody the Ventana UltraView detection kit was used.

B1: anti-HER3 antibody M-08-11 (antibody, V domains shown)
VH: QAYLQQSGAELMRPGASVRMSCQASGYTFTSYTIHWLKQTPRQGLEWIGAIYPRNGDFSYNQKFKDKASLTVDTSSSTAYMHLSSLTSEDSAVYFCARTINYGDWFAYWGQGTLVTVSA
VL: DIQMIQSPASLFVSEGETVIITCRASENIYSNLAWYHQKKGKSPQVLVYAAIKLADGVPLRFSGSGSGTQFSLKINSLQSEDFGSYYCQHFWGPPYTFGSGTNLEIK
notes: mouse monoclonal antibody from hybridoma, tested as hybridoma supernatant or as antibody; also called M-011
Take B1: in test [1], the Kd (usually the concentration at which binding is half-saturated) was 3.5 nM; the “MR (Molar Ratio)” value worked out at 0.1; the off-rate constant (koff) (usually the rate constant with which the complex falls apart) is 0.00037 s⁻¹; the kon – broadly, the rate constant with which the complex forms – was 110000 M⁻¹ s⁻¹. In test [2], the “MR (Molar Ratio)” value was 0.7. In the test with TtSlyDcas, the “MR (Molar Ratio)” value is 0 and the binding result is on record as “no binding (tested: 90 nM)”. Further, in test [3], the Kd amounted to 419 nM, the “Weight (contribution to the overall interaction)” value (“Weight” for short) stood at 79%, the off-rate constant (koff) turned out to be 0.0799 s⁻¹ and the association rate constant (kon) was determined as 191000 M⁻¹ s⁻¹. Also, in test [4], the “BL (binding late)” value amounted to 61 RU, the “MR (Molar Ratio)” value was 0.4, the “SL (stability late)” value is 62 RU and the koff stood at 4.11e-05 s⁻¹. Also, the t/2 diss in test [4] is 281 min. Also, in test [5], the “BL (binding late)” value amounted to 46 RU, the “MR (Molar Ratio)” value came out at 1.3, the “SL (stability late)” value is 45 RU and the off-rate constant (koff) was found to be 0.000102 s⁻¹. The t/2 diss in test [5] stood at 114 min. Also, the binding result in test [6] is “no binding”.

B2: anti-HER3 antibody M-17-02 (antibody, V domains shown)
VH: EVQLQQSGTVLARPGASVKMSCKASGYSFTSYWIHWVKQRPGQGLEWIGAIYPGNSDTTYNQKFKGKAKLTAVTSASTAYMELSSLTNEDSAVYYCARTGVWTSYYFDYWGQGTTLTVSS
VL: DIQMTQSPASLSASVGETVTITCRASENIYSNLAWYQQKQGKSPQLLVYAATNLADGVPSRFSGSGSGTQFSLRINSLQPEDFGSYYCQHFYGTPFTFGTGTKLEIK
notes: mouse hybridoma clone
For the molecule B2, in test [4], the “BL (binding late)” value was 10 RU, the “MR (Molar Ratio)” value turned out to be 0.1 and the “SL (stability late)” value came to 10 RU. For the same molecule, in test [5], the “BL (binding late)” value turned out to be 52 RU, the “MR (Molar Ratio)” value came out at 1.7, the “SL (stability late)” value stood at 50 RU and the koff stood at 0.0002 s⁻¹. Moreover, the t/2 diss in test [5] turned out to be 59 min. Further, the binding result in test [6] is reported as “no binding”.

B3: anti-HER3 antibody M-43-01 (antibody, V domains shown)
VH: EVQLQQSGTVLARPGASVKMSCKASDYTFSNYWVHWVKQRPGQGLEWIGAIYPGNGDSTYYQKFKGKATLTAVTSTSTAYMDLSSLTNGDSAVYFCTRSGVGYNYYFDYWGQGTTLTVSS
VL: DIQMTQSPASLSASVGETVTITCRASENIYSNLAWYQQKQGKSPQLLVYIATNLADGVPSRFSGSGSGTQFSLKINSLQPEDLGSYYCQHFYGTPFTFGTGTKLEIE
notes: mouse hybridoma clone
As for B3, in test [1], the equilibrium dissociation constant (Kd) turned out to be 5.2 nM, the “MR (Molar Ratio)” value was found to be 0.1, the koff came out at 0.00055 s⁻¹ and the kon amounted to 110000 M⁻¹ s⁻¹. For the same molecule, the “MR (Molar Ratio)” value in test [2] came to 0.3. Moreover, in the test with TtSlyDcas, the “MR (Molar Ratio)” value was determined as 0 and the binding result was “no binding (tested: 90 nM)”. In addition, in test [3], the Kd came to 261 nM, the “Weight” value was found to be 69%, the koff turned out to be 0.141 s⁻¹ and the on-rate (kon) amounted to 541000 M⁻¹ s⁻¹. Also, in test [4], the “BL (binding late)” value was 9 RU, the “MR (Molar Ratio)” value stood at 0.1, the “SL (stability late)” value worked out at 8 RU and the off-rate constant (koff) turned out to be 0.00066 s⁻¹. Also, the t/2 diss in test [4] amounted to 18 min. In addition, in test [5], the “BL (binding late)” value came out at 53 RU, the “MR (Molar Ratio)” value came to 1.7, the “SL (stability late)” value stood at 51 RU and the off-rate (koff) amounted to 0.00016 s⁻¹. Also, the t/2 diss in test [5] was 73 min. Besides, the binding result in test [6] was “no binding”.

B4: anti-HER3 antibody M-46-01 (antibody, V domains shown)
VH: QIQLQQSGPQLVRPGASVKISCKASGYSFTSYWMHWVKQRPGRGLEWIGMIDPSDGVTRLNQKFKDKATLTVDNSSSTAYMQLSSPTSEDSAVHYCARVDVLYWYFDVWGAGTTVTVSS
VL: DIVLTQSPASLAVSLGQRATISCRASKSISISGYSYMHWYQQKAGQPPKLLIYLTSNLESGVPARFSGSGSGTDFTLNIHPVEEEDAATYYCHHSRELPFTFGSGTKLEIK
notes: mouse hybridoma clone
B4: in test [1], the dissociation constant Kd was determined as 3.8 nM, the “MR (Molar Ratio)” value was determined as 0.2, the dissociation rate constant (koff) amounted to 0.0004 s⁻¹ and the kon is 100000 M⁻¹ s⁻¹. Also, in test [2], the “MR (Molar Ratio)” value was 0.9. Besides, in the test with TtSlyDcas, the “MR (Molar Ratio)” value worked out at 0 and the binding result is “no binding (tested: 90 nM)”. In addition, in test [3], the Kd turned out to be 356 nM, the “Weight” value was 77%, the koff turned out to be 0.232 s⁻¹ and the kon worked out at 652000 M⁻¹ s⁻¹. In test [4], the “BL (binding late)” value was determined as 21 RU, the “MR (Molar Ratio)” value stood at 0.2, the “SL (stability late)” value worked out at 17 RU and the koff turned out to be 0.00041 s⁻¹. In addition, the t/2 diss in test [4] is 28 min. Also, in test [5], the “BL (binding late)” value was found to be 80 RU, the “MR (Molar Ratio)” value came out at 1.8, the “SL (stability late)” value was 71 RU and the koff turned out to be 0.00028 s⁻¹. Further, the t/2 diss in test [5] stood at 41 min. Further, in test [6], the binding result is reported as “no binding”.
